Test [1] deals with fusion protein hPD1-HSA composed of a PD1 extracellular domain sequence and a human serum albumin sequence (human). In words: ELISA, hPD1-HSA coated 200 ng/well, HRP anti-human IgG Fc. A general note: An ELISA detects its analyte on a solid surface through an enzyme-linked reagent.
For test [2] the target is unchanged. In words: competitive ELISA, hPD1-HSA coated; competitor bio-hPDL1-FC, HRP-Streptavidin.

For the substance Keytruda ® (antibody), the EC50 – broadly, the midpoint of the concentration-response curve – in test [1] was found to be 0.181 nM. In addition, the half-maximal inhibitory concentration (IC50) – broadly, the concentration that gives 50% inhibition – in test [2] was 1.72 nM.

Values taken from patent US20240092908A1.
